Test results reported in patent US20220380471A1 (US Dept. of Health and Human Services, published 2022).
Each block holds one binder with its values, some of them ahead of it.

What was measured:
[1] = molecular target: T1, recombinant human B7H3-Fc protein (human, UniProt Q5ZPR3 29-466, limits assumed); assay: ELISA; row B7H3-Fc; well 1 of 3
T1 construct: 154 kDa non-reduced, 77 kDa reduced; also called hB7H3-Fc; not shown: Fc part
T1 sequence (looked up): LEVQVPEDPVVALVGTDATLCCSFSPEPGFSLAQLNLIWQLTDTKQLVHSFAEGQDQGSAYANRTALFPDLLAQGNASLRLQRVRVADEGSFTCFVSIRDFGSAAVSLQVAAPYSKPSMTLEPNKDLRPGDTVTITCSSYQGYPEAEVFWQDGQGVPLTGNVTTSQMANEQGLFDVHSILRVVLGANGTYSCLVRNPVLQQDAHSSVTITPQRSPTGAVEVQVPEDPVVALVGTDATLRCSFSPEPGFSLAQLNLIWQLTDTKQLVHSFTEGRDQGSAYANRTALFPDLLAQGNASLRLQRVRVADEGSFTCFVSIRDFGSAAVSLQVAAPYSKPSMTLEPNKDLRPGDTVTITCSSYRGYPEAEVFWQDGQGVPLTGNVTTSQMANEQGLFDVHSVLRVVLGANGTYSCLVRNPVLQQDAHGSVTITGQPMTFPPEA
Outline: (§1)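 Binding of the purified camel VHH nanobodies is given as the ELISA signal. The immobilised recombinant proteins included B7H3 fusion proteins and proteins other than B7H3. The nanobodies were isolated beforehand by phage panning on recombinant B7H3-Fc.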

[2] = molecular target: T1, recombinant human B7H3-Fc protein; assay: BLI (Octet), human B7H3-Fc; same value printed for 660, 132 and 26.4 nM
Method: FIG. 12: Kinetics of RWC4 on human B7H3-Fc. The association/dissociation properties of RWC4 were measured on the Octet system (Creative Biolabs) using recombinant human B7H3-Fc protein.
(§2) The association/dissociation properties of RWC4 and RWG4 were measured on the Octet system (Creative Biolabs) using either recombinant human B7H3-Fc protein or recombinant mouse B7H3-His protein.

hB7H3-His = molecular target: T2, hB7H3-His (human, UniProt Q5ZPR3 29-461, limits assumed); assay: ELISA; row B7H3-his; well 2 of 3
T2 construct: not shown: His tag
T2 sequence (looked up): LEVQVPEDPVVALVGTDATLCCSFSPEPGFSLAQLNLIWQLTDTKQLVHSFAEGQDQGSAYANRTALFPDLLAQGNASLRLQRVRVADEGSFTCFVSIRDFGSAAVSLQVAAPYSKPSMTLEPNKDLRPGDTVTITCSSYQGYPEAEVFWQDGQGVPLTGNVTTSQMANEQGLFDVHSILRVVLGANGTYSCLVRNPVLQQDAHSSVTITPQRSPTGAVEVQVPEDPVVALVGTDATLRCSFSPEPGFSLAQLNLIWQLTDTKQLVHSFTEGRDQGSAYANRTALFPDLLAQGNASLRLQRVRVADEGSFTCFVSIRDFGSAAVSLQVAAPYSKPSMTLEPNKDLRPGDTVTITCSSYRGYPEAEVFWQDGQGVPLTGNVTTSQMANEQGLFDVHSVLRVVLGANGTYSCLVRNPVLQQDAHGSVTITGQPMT
Outline: as §1

[3] = molecular target: T1, recombinant human B7H3-Fc protein; assay: BLI (Octet), human B7H3-Fc; same value printed for 660, 528, 264, 198, 66 and 33 nM
Method: FIG. 13: Kinetics of RWG4 on human B7H3-Fc. The association/dissociation properties of RWG4 were measured on the Octet system (Creative Biolabs) using recombinant human B7H3-Fc protein.
as §2

mouse B7H3-His = molecular target: T3, mouse B7H3-His (mouse, UniProt Q8VE98 29-244, limits assumed); assay: phage ELISA, cross-species
T3 construct: also called recombinant mouse B7H3-His protein; not shown: His tag
T3 sequence (looked up): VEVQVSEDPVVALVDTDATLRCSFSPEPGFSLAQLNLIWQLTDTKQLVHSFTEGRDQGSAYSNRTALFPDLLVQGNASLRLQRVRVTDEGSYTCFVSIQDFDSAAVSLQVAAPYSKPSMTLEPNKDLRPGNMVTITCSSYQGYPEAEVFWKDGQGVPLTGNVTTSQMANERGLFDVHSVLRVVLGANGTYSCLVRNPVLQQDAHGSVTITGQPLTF
Outline: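 Camel VHH phage from libraries of eight individual camels went through 3 rounds of panning on recombinant B7H3-Fc protein. The recorded ELISA signal reflects binding of the selected phage to immobilised human or other-species B7H3, or to control proteins, in a phage ELISA.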

ELISA reading (name not given) [1]: 2.01
Kd [2]: 3.8 nM
koff [2]: 0.000101 s⁻¹
kon [2]: 26500 M⁻¹ s⁻¹
ELISA reading (name not given) (hB7H3-His): 0.0879
B1: RWC4 (VHH)
VHH: EVQLVESGGGSVQAGGSLRLSCVASEDSTSAMCMGWFRQAPGKEREGVACINPTGEVTWYGDSVKGRFTISRDTVKKIVYLQMNSLKPEDTAMYYCAARVTYGGDWSTDTDYEYWGQGTQVTVSS
notes: Camel VHH; tag not described; also called camel antibody RWC4

Kd [3]: 6.94 nM
koff [3]: 6.34e-05 s⁻¹
kon [3]: 9130 M⁻¹ s⁻¹
ELISA signal (mouse B7H3-His): 0.0665
B2: RWG4 (VHH)
VHH: QVQLVQSGGGLVQPGGSLRLSCAASGFTFSVYWFYWVRQAPRQGLEWVSTIASNGSTYYSDSVKGRFTISRDNAKNTVYLQMNSLKPEDTAVYYCVSDPDYYSDYERAYKFWAQGTQVTVSS
notes: Camel VHH; tag not described; also called camel antibody RWG4

ELISA reading (name not given) [1]: 1.97
ELISA reading (name not given) (hB7H3-His): 0.0686
ELISA signal (mouse B7H3-His): 2.47
B3: RWG8 (VHH)
VHH: DVQLVESGGGLVQPGGSLRLSCAASGFTFSRYWMGWFRQAPGKGVEWVSTINSGGGSTYYADSVKGRFTISRDNAKNTLYLQLNNLKTEDTAMYYCAKEQWRTGSRGQGTQVTVSS
notes: Camel VHH; tag not described; also called camel antibody RWG8

ELISA reading (name not given) [1]: 0.878
ELISA reading (name not given) (hB7H3-His): 0.0595
B4: RWB12 (VHH)
VHH: QVQLVESGGGSVQVGGSLRLSCAASGFTYNSYSVGWFRQAPGKEREGVAAINSGGSSTYYAASVKGRFTISRDNAKNTVYLQMNSLKPEDTAMYYCAARSPSPLTFQTRTLREDSYNYWGQGTQVTVSS
notes: Camel VHH; tag not described; also called camel antibody RWB12
